In publication PMC9482650, “Quantitative fragmentomics allow affinity mapping of interactomes” (Nature Communications, 2022):

T1: GRIP1_3, Q9Y3R0
T1 sequence (Q9Y3R0 247-346, limits assumed, looked up): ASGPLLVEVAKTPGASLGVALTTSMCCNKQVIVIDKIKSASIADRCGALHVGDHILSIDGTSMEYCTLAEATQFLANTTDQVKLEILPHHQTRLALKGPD

T2: GRIP1_7, Q9Y3R0
T2 sequence (Q9Y3R0 999-1096, limits assumed, looked up): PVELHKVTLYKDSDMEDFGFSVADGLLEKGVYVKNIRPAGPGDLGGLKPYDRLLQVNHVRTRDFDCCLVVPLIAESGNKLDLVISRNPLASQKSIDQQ

T3: LRRC7, Q96NW7
T3 sequence (Q96NW7 1440-1537, limits assumed, looked up): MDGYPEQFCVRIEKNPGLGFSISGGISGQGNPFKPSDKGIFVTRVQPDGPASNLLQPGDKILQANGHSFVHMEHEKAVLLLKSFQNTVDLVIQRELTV

T4: MPDZ_5, O75970
T4 sequence (O75970 695-796, limits assumed, looked up): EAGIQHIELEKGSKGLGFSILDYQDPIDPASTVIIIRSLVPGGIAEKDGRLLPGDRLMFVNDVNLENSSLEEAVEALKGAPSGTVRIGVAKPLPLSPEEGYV

T5: MPP7, Q5T2T1
T5 sequence (Q5T2T1 134-230, limits assumed, looked up): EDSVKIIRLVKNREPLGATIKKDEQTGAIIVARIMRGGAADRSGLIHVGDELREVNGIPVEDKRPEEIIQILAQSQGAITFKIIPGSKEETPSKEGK

T6: NHERF3_3, Q5T2W1
T6 sequence (Q5T2W1 238-333, limits assumed, looked up): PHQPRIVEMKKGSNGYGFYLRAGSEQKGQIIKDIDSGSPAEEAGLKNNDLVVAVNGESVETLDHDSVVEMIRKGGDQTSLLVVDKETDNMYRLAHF

T7: NHERF3_4, Q5T2W1
T7 sequence (Q5T2W1 373-468, limits assumed, looked up): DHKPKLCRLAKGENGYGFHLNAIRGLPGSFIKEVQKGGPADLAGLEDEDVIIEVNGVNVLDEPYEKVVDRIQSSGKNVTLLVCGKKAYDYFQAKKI

T8: PCLO, Q9Y6V0
T8 sequence (Q9Y6V0 4491-4600, limits assumed, looked up): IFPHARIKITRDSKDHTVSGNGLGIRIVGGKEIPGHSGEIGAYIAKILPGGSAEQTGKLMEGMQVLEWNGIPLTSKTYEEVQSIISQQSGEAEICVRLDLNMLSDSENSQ

T9: RHPN1, Q8TCX5
T9 sequence (Q8TCX5 508-602, limits assumed, looked up): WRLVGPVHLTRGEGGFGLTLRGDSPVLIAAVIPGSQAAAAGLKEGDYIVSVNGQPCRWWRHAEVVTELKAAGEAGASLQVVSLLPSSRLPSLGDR

T10: SNTA1, Q13424
T10 sequence (Q13424 82-180, limits assumed, looked up): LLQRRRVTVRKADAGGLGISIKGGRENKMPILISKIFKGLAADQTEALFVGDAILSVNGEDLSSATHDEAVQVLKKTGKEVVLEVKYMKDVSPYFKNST

T11: SYNJ2BP, P57105
T11 sequence (P57105 8-110, limits assumed, looked up): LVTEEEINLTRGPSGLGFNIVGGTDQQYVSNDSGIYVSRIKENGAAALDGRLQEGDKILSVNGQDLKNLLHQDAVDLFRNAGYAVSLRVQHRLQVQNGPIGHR

T12: TX1BP3, O14907
T12 sequence (O14907 10-122, limits assumed, looked up): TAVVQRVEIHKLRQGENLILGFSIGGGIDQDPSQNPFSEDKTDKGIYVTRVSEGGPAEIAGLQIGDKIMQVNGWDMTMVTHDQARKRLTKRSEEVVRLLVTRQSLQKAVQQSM


These binders were tested against DLG1_2, Q12959 (assay: holdup assay). Details: plain residues with an end cap or a label only (N-terminal biotin on a linker: ado-ado).
Design: key: below the threshold = too weak to quantify, mostly under pKd 3.1 to 4

DLG1_2, Q12959, sequence (Q12959 314-412): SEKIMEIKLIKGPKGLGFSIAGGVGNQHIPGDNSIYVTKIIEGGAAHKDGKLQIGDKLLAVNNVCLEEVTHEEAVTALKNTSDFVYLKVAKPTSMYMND

| Binder | pKd |
| --- | --- |
| VDSTVKVWTC [TRAF7, Q6Q0C0] | 3.84 |
| QHKTQLQTLI [BPIFA2, Q96DR5] | 4.88 |

The binders below were run against DLG2_2, Q15700 (assay: holdup assay). Details: plain residues with an end cap or a label only (N-terminal biotin on a linker: ado-ado).
Design: key: below the threshold = too weak to quantify, mostly under pKd 3.1 to 4

| Binder | pKd |
| --- | --- |
| VDSTVKVWTC [TRAF7, Q6Q0C0] | 3.72 |
| QHKTQLQTLI [BPIFA2, Q96DR5] | 4.32 |

The binders below were run against DLG2_3, Q15700 (assay: holdup assay). Details: plain residues with an end cap or a label only (N-terminal biotin on a linker: ado-ado).
Design: key: below the threshold = too weak to quantify, mostly under pKd 3.1 to 4

| Binder | pKd |
| --- | --- |
| VDSTVKVWTC [TRAF7, Q6Q0C0] | 3.73 |
| QHKTQLQTLI [BPIFA2, Q96DR5] | below the threshold |

Each binder was assayed against DLG5_1, Q8TDM6 (assay: holdup assay). Details: plain residues with an end cap or a label only (N-terminal biotin on a linker: ado-ado).
Design: key: below the threshold = too weak to quantify, mostly under pKd 3.1 to 4

DLG5_1, Q8TDM6, sequence (Q8TDM6 617-713): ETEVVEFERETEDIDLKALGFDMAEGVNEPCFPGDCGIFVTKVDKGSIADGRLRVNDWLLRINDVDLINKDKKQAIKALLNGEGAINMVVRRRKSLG

| Binder | pKd |
| --- | --- |
| VDSTVKVWTC [TRAF7, Q6Q0C0] | 3.56 |
| QHKTQLQTLI [BPIFA2, Q96DR5] | 3.48 |

Each binder was assayed against GRID2IP_2, A4D2P6 (assay: holdup assay). Details: plain residues with an end cap or a label only (N-terminal biotin on a linker: ado-ado).
Design: key: below the threshold = too weak to quantify, mostly under pKd 3.1 to 4

GRID2IP_2, A4D2P6, sequence (A4D2P6 272-370): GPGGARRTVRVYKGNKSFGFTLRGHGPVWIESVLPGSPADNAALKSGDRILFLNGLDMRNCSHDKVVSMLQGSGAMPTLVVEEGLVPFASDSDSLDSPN

| Binder | pKd |
| --- | --- |
| VDSTVKVWTC [TRAF7, Q6Q0C0] | below the threshold |
| QHKTQLQTLI [BPIFA2, Q96DR5] | 3.93 |

What follows are binders tested against T1, GRIP1_3, Q9Y3R0 (assay: holdup assay). Details: plain residues with an end cap or a label only (N-terminal biotin on a linker: ado-ado).
Design: key: below the threshold = too weak to quantify, mostly under pKd 3.1 to 4

| Binder | pKd |
| --- | --- |
| VDSTVKVWTC [TRAF7, Q6Q0C0] | below the threshold |
| QHKTQLQTLI [BPIFA2, Q96DR5] | below the threshold |

Each binder was assayed against T2, GRIP1_7, Q9Y3R0 (assay: holdup assay). Details: plain residues with an end cap or a label only (N-terminal biotin on a linker: ado-ado).
Design: key: below the threshold = too weak to quantify, mostly under pKd 3.1 to 4

| Binder | pKd |
| --- | --- |
| VDSTVKVWTC [TRAF7, Q6Q0C0] | below the threshold |
| QHKTQLQTLI [BPIFA2, Q96DR5] | below the threshold |

Each binder was assayed against GRIP2_7, Q9C0E4 (assay: holdup assay). Details: plain residues with an end cap or a label only (N-terminal biotin on a linker: ado-ado).
Design: key: below the threshold = too weak to quantify, mostly under pKd 3.1 to 4

GRIP2_7, Q9C0E4, sequence (Q9C0E4 934-1023): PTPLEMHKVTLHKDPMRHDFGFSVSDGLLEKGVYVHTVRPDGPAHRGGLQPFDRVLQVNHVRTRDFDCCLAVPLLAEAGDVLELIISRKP

| Binder | pKd |
| --- | --- |
| VDSTVKVWTC [TRAF7, Q6Q0C0] | 4.35 |
| QHKTQLQTLI [BPIFA2, Q96DR5] | below the threshold |

The binders below were run against HTRA1, Q92743 (assay: holdup assay). Details: plain residues with an end cap or a label only (N-terminal biotin on a linker: ado-ado).
Design: key: below the threshold = too weak to quantify, mostly under pKd 3.1 to 4

HTRA1, Q92743, sequence (Q92743 360-477): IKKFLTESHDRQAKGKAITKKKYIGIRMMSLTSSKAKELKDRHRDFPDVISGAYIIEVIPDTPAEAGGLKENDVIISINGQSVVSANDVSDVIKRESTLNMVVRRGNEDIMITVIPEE

| Binder | pKd |
| --- | --- |
| VDSTVKVWTC [TRAF7, Q6Q0C0] | 5.61 |
| QHKTQLQTLI [BPIFA2, Q96DR5] | 4.06 |

Each binder was assayed against Inadl_5, Q8NI35 (assay: holdup assay). Details: plain residues with an end cap or a label only (N-terminal biotin on a linker: ado-ado).
Design: key: below the threshold = too weak to quantify, mostly under pKd 3.1 to 4

Inadl_5, Q8NI35, sequence (Q8NI35 673-780): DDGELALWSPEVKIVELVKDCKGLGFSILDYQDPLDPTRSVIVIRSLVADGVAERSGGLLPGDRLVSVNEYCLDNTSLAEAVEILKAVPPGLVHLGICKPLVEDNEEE

| Binder | pKd |
| --- | --- |
| VDSTVKVWTC [TRAF7, Q6Q0C0] | below the threshold |
| QHKTQLQTLI [BPIFA2, Q96DR5] | below the threshold |

These binders were tested against LIMK2, P53671 (assay: holdup assay). Details: plain residues with an end cap or a label only (N-terminal biotin on a linker: ado-ado).
Design: key: below the threshold = too weak to quantify, mostly under pKd 3.1 to 4

LIMK2, P53671, sequence (P53671 143-248): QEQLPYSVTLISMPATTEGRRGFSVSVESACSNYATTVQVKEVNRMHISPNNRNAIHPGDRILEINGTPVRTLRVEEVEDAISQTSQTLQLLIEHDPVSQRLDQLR

| Binder | pKd |
| --- | --- |
| VDSTVKVWTC [TRAF7, Q6Q0C0] | below the threshold |
| QHKTQLQTLI [BPIFA2, Q96DR5] | below the threshold |

Each binder was assayed against T3, LRRC7, Q96NW7 (assay: holdup assay). Details: plain residues with an end cap or a label only (N-terminal biotin on a linker: ado-ado).
Design: key: below the threshold = too weak to quantify, mostly under pKd 3.1 to 4

| Binder | pKd |
| --- | --- |
| VDSTVKVWTC [TRAF7, Q6Q0C0] | below the threshold |
| QHKTQLQTLI [BPIFA2, Q96DR5] | below the threshold |

What follows are binders tested against MAGI2_3, Q86UL8 (assay: holdup assay). Details: plain residues with an end cap or a label only (N-terminal biotin on a linker: ado-ado).
Design: key: below the threshold = too weak to quantify, mostly under pKd 3.1 to 4

MAGI2_3, Q86UL8, sequence (Q86UL8 600-682): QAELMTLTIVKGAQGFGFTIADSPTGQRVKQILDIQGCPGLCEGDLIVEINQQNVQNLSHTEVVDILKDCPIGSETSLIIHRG

| Binder | pKd |
| --- | --- |
| VDSTVKVWTC [TRAF7, Q6Q0C0] | below the threshold |
| QHKTQLQTLI [BPIFA2, Q96DR5] | below the threshold |

These binders were tested against MAGI2_4, Q86UL8 (assay: holdup assay). Details: plain residues with an end cap or a label only (N-terminal biotin on a linker: ado-ado).
Design: key: below the threshold = too weak to quantify, mostly under pKd 3.1 to 4

MAGI2_4, Q86UL8, sequence (Q86UL8 772-865): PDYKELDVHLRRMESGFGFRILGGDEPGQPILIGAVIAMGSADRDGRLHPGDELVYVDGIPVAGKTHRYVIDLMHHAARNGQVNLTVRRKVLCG

| Binder | pKd |
| --- | --- |
| VDSTVKVWTC [TRAF7, Q6Q0C0] | below the threshold |
| QHKTQLQTLI [BPIFA2, Q96DR5] | 4.05 |

These binders were tested against MAST1, Q9Y2H9 (assay: holdup assay). Details: plain residues with an end cap or a label only (N-terminal biotin on a linker: ado-ado).
Design: key: below the threshold = too weak to quantify, mostly under pKd 3.1 to 4

MAST1, Q9Y2H9, sequence (Q9Y2H9 962-1065): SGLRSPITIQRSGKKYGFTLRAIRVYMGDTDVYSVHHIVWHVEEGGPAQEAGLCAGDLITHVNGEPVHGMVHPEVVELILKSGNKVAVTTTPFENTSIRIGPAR

| Binder | pKd |
| --- | --- |
| VDSTVKVWTC [TRAF7, Q6Q0C0] | below the threshold |
| QHKTQLQTLI [BPIFA2, Q96DR5] | below the threshold |

What follows are binders tested against T4, MPDZ_5, O75970 (assay: holdup assay). Details: plain residues with an end cap or a label only (N-terminal biotin on a linker: ado-ado).
Design: key: below the threshold = too weak to quantify, mostly under pKd 3.1 to 4

| Binder | pKd |
| --- | --- |
| VDSTVKVWTC [TRAF7, Q6Q0C0] | below the threshold |
| QHKTQLQTLI [BPIFA2, Q96DR5] | below the threshold |

Each binder was assayed against T5, MPP7, Q5T2T1 (assay: holdup assay). Details: plain residues with an end cap or a label only (N-terminal biotin on a linker: ado-ado).
Design: key: below the threshold = too weak to quantify, mostly under pKd 3.1 to 4

| Binder | pKd |
| --- | --- |
| VDSTVKVWTC [TRAF7, Q6Q0C0] | 3.84 |
| QHKTQLQTLI [BPIFA2, Q96DR5] | below the threshold |

What follows are binders tested against T6, NHERF3_3, Q5T2W1 (assay: holdup assay). Details: plain residues with an end cap or a label only (N-terminal biotin on a linker: ado-ado).
Design: key: below the threshold = too weak to quantify, mostly under pKd 3.1 to 4

| Binder | pKd |
| --- | --- |
| VDSTVKVWTC [TRAF7, Q6Q0C0] | 3.48 |
| QHKTQLQTLI [BPIFA2, Q96DR5] | below the threshold |

Each binder was assayed against T7, NHERF3_4, Q5T2W1 (assay: holdup assay). Details: plain residues with an end cap or a label only (N-terminal biotin on a linker: ado-ado).
Design: key: below the threshold = too weak to quantify, mostly under pKd 3.1 to 4

| Binder | pKd |
| --- | --- |
| VDSTVKVWTC [TRAF7, Q6Q0C0] | below the threshold |
| QHKTQLQTLI [BPIFA2, Q96DR5] | 3.48 |

Each binder was assayed against T8, PCLO, Q9Y6V0 (assay: holdup assay). Details: plain residues with an end cap or a label only (N-terminal biotin on a linker: ado-ado).
Design: key: below the threshold = too weak to quantify, mostly under pKd 3.1 to 4

| Binder | pKd |
| --- | --- |
| VDSTVKVWTC [TRAF7, Q6Q0C0] | below the threshold |
| QHKTQLQTLI [BPIFA2, Q96DR5] | below the threshold |

These binders were tested against PDZRN4_1, Q6ZMN7 (assay: holdup assay). Details: plain residues with an end cap or a label only (N-terminal biotin on a linker: ado-ado).
Design: key: below the threshold = too weak to quantify, mostly under pKd 3.1 to 4

PDZRN4_1, Q6ZMN7, sequence (Q6ZMN7 213-318): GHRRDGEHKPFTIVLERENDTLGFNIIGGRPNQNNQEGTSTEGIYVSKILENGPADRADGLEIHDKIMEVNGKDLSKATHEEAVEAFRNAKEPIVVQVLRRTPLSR

| Binder | pKd |
| --- | --- |
| VDSTVKVWTC [TRAF7, Q6Q0C0] | below the threshold |
| QHKTQLQTLI [BPIFA2, Q96DR5] | below the threshold |

The binders below were run against T9, RHPN1, Q8TCX5 (assay: holdup assay). Details: plain residues with an end cap or a label only (N-terminal biotin on a linker: ado-ado).
Design: key: below the threshold = too weak to quantify, mostly under pKd 3.1 to 4

| Binder | pKd |
| --- | --- |
| VDSTVKVWTC [TRAF7, Q6Q0C0] | below the threshold |
| QHKTQLQTLI [BPIFA2, Q96DR5] | 4.26 |

What follows are binders tested against T10, SNTA1, Q13424 (assay: holdup assay). Details: plain residues with an end cap or a label only (N-terminal biotin on a linker: ado-ado).
Design: key: below the threshold = too weak to quantify, mostly under pKd 3.1 to 4

| Binder | pKd |
| --- | --- |
| VDSTVKVWTC [TRAF7, Q6Q0C0] | below the threshold |
| QHKTQLQTLI [BPIFA2, Q96DR5] | below the threshold |

The binders below were run against T11, SYNJ2BP, P57105 (assay: holdup assay). Details: plain residues with an end cap or a label only (N-terminal biotin on a linker: ado-ado).
Design: key: below the threshold = too weak to quantify, mostly under pKd 3.1 to 4

| Binder | pKd |
| --- | --- |
| VDSTVKVWTC [TRAF7, Q6Q0C0] | below the threshold |
| QHKTQLQTLI [BPIFA2, Q96DR5] | 4.12 |

Each binder was assayed against T12, TX1BP3, O14907 (assay: holdup assay). Details: plain residues with an end cap or a label only (N-terminal biotin on a linker: ado-ado).
Design: key: below the threshold = too weak to quantify, mostly under pKd 3.1 to 4

| Binder | pKd |
| --- | --- |
| VDSTVKVWTC [TRAF7, Q6Q0C0] | below the threshold |
| QHKTQLQTLI [BPIFA2, Q96DR5] | 3.79 |
